Data: patent US20240301049A1 (Ablynx, published 2024)

T1: cyno IL-6 (cynomolgus monkey, UniProt P79341 28-212, limits assumed)
T1 sequence (looked up): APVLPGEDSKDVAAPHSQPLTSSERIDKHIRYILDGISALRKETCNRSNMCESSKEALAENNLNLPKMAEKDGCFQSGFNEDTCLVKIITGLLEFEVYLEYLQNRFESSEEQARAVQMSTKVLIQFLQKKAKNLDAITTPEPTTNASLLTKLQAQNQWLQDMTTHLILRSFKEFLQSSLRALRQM


How the values were obtained:
Experiment in all cases: cell-based or functional assay
human TNF-α [1] = biological target: T2, human TNF-α (human, UniProt P01375 77-233)
cyno TNF-α [2] = biological target: T3, cyno TNF-α (cynomolgus monkey, UniProt P79337 77-233)
cyno IL-6 [3] = biological target: T1, cyno IL-6
human IL-6 [4] = biological target: T4, human IL-6 (human, UniProt P05231 30-212)
human TNF-α [5] = biological target: T2, human TNF-α; remark: listed apart in the source
cyno TNF-α [6] = biological target: T3, cyno TNF-α; remark: listed apart in the source
cyno IL-6 [7] = biological target: T1, cyno IL-6; remark: listed apart in the source
human IL-6 [8] = biological target: T4, human IL-6; remark: listed apart in the source

T3 sequence (P79337 77-233 limits assumed): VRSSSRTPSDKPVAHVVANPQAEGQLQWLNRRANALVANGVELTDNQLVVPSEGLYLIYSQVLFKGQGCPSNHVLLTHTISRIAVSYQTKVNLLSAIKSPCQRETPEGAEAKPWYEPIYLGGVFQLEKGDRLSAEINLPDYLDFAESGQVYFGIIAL
T2 sequence (P01375 77-233 limits assumed): as the sequence (P79337 77-233 limits assumed) above, with V37L, T44R, N72T, L138R counted along it

| Binder | Ratio IC50 reference anti-TNF-α mAb/Nb (human TNF-α [1]) | hTNF-α Nfkb assay (IC50, pM) (human TNF-α [1]) | cyno TNF-α NFkb assay (IC50, pM) (cyno TNF-α [2]) | cyno IL-6 TF1 proliferation assay (IC50, pM) (cyno IL-6 [3]) | Ratio IC50 reference anti-IL-6 mAb1/Nb (human IL-6 [4]) | hIL-6 TF1 proliferation assay (IC50, pM) (human IL-6 [4]) | IC50 hTNF-α Nfkb assay (human TNF-α [5]) | Ratio IC50 cyno TNFα/hTNFα (cyno TNF-α [6]) | Ratio IC50 cyno IL-6/hIL-6 (cyno IL-6 [7]) | IC50 hIL-6 TF1 proliferation assay (human IL-6 [8]) |
| --- | --- | --- | --- | --- | --- | --- | --- | --- | --- | --- |
| F027201029 (bispecific antibody) EVQLVESGGGVVQPGGSLRLSCTASGFTFSTADMGWFRQAPGKGREFVARISGIDGTTYYDEPVKGRFTISRDNSKNTVYLQMNSLRPEDTALYYCRSPRYADQWSAYDYWGQGTLVKVSSGGGGSGGGSDVQLVESGGGVVQPGGSLRLSCAASGRTFSNYAMAWFRQAPGKEREFVAVISYAGGRTYYADSVKGRFTISRDNAKNTVYLQMNSLRPEDTALYYCAAVDSPLIATHPRGYDYWGQGTLVTVSSGGGGSGGGSEVQLVESGGGVVQPGGSLRLSCAASGFTFRSFGMSWVRQAPGKGPEWVSSISGSGSDTLYADSVKGRFTISRDNSKNTLYLQMNSLRPEDTALYYCTIGGSLSRSSQGTLVTVSSGGGGSGGGSEVQLVESGGGVVQPGGSLRLSCAASGIIFSINAMGWYRQAPGKQRELVADIFPFGSTEYADSVKGRFTISRDNAKNTVYLQMNSLRPEDTALYYCHSYDPRGDDYWGQGTLVTVSS | 0.83 ratio | 69 pM | 139 pM | 209 pM | 5.3 ratio | 347 pM | 0.0685 nM | 2 ratio | 0.6 ratio | 0.347 nM |
| F027200157 (bispecific antibody) EVQLVESGGGVVQPGGSLRLSCTASGFTFSTADMGWFRQAPGKGREFVARISGIDGTTYYDEPVKGRFTISRDNSKNTVYLQMNSLRPEDTALYYCRSPRYADQWSAYDYWGQGTLVKVSSGGGGSGGGSEVQLVESGGGVVQPGGSLRLSCAASGFTFRSFGMSWVRQAPGKGPEWVSSISGSGSDTLYADSVKGRFTISRDNSKNTLYLQMNSLRPEDTALYYCTIGGSLSRSSQGTLVTVSSGGGGSGGGSEVQLVESGGGVVQPGGSLRLSCAASGIIFSINAMGWYRQAPGKQRELVADIFPFGSTEYADSVKGRFTISRDNAKNTVYLQMNSLRPEDTALYYCHSYDPRGDDYWGQGTLVTVSSGGGGSGGGSEVQLVESGGGVVQPGGSLRLSCAASGFTLAYYAIGWFRQAPGKEREGVSCISGSVGTTYYADSVKGRFTISRDNAKNTVYLQMNSLRPEDTALYYCVRSSWFDCGVQGRDLGNEYDYRGQGTLVTVSS |  |  |  |  |  |  | 0.124 nM | 4 ratio | 7.1 ratio | 3.33 nM |
| F027200812 (bispecific antibody) DVQLVESGGGVVQPGGSLRLSCAASGRTFSNYAMAWFRQAPGKEREFVAVISYAGGRTYYADSVKGRFTISRDNAKNTVYLQMNSLRPEDTALYYCAAVDSPLIATHPRGYDYWGQGTLVTVSSGGGGSGGGSEVQLVESGGGVVQPGGSLRLSCAASGFTFRSFGMSWVRQAPGKGPEWVSSISGSGSDTLYADSVKGRFTISRDNSKNTLYLQMNSLRPEDTALYYCTIGGSLSRSSQGTLVTVSSGGGGSGGGSEVQLVESGGGVVQPGGSLRLSCAASGFSLDYYGVGWFRQAPGKEREGVSCISSSEGDTYYADSVKGRFTISRDNAKNTVYLQMNSLRPEDTALYYCATDLSDYGVCSRWPSPYDYWGQGTLVKVSSGGGGSGGGSEVQLVESGGGVVQPGGSLRLSCTASGFTFSTADMGWFRQAPGKGREFVARISGIDGTTYYDEPVKGRFTISRDNSKNTVYLQMNSLRPEDTALYYCRSPRYADQWSAYDYWGQGTLVKVSS | 0.62 ratio | 206 pM | 360 pM | 54 pM | 1.7 ratio | 72 pM | 0.206 nM | 1.7 ratio | 0.7 ratio | 0.072 nM |
| F027200809 (bispecific antibody) EVQLVESGGGVVQPGGSLRLSCTASGFTFSTADMGWFRQAPGKGREFVARISGIDGTTYYDEPVKGRFTISRDNSKNTVYLQMNSLRPEDTALYYCRSPRYADQWSAYDYWGQGTLVKVSSGGGGSGGGSDVQLVESGGGVVQPGGSLRLSCAASGRTFSNYAMAWFRQAPGKEREFVAVISYAGGRTYYADSVKGRFTISRDNAKNTVYLQMNSLRPEDTALYYCAAVDSPLIATHPRGYDYWGQGTLVTVSSGGGGSGGGSEVQLVESGGGVVQPGGSLRLSCAASGFTFRSFGMSWVRQAPGKGPEWVSSISGSGSDTLYADSVKGRFTISRDNSKNTLYLQMNSLRPEDTALYYCTIGGSLSRSSQGTLVTVSSGGGGSGGGSEVQLVESGGGVVQPGGSLRLSCAASGFSLDYYGVGWFRQAPGKEREGVSCISSSEGDTYYADSVKGRFTISRDNAKNTVYLQMNSLRPEDTALYYCATDLSDYGVCSRWPSPYDYWGQGTLVKVSS | 0.91 ratio | 141 pM | 329 pM | 61 pM | 1.7 ratio | 68 pM | 0.141 nM | 2.3 ratio | 0.9 ratio | 0.0682 nM |
| F027201060 (bispecific antibody) EVQLVESGGGVVQPGGSLRLSCAASGFTLAYYAIGWFRQAPGKEREGVSCISGSVGTTYYADSVKGRFTISRDNAKNTVYLQMNSLRPEDTALYYCVRSSWFDCGVQGRDLGNEYDYRGQGTLVTVSSGGGGSGGGSEVQLVESGGGVVQPGGSLRLSCAASGFTFRSFGMSWVRQAPGKGPEWVSSISGSGSDTLYADSVKGRFTISRDNSKNTLYLQMNSLRPEDTALYYCTIGGSLSRSSQGTLVTVSSGGGGSGGGSEVQLVESGGGVVQPGGSLRLSCAASGFSLDYYGVGWFRQAPGKEREGVSCISSSEGDTYYADSVKGRFTISRDNAKNTVYLQMNSLRPEDTALYYCATDLSDYGVCSRWPSPYDYWGQGTLVKVSSGGGGSGGGSEVQLVESGGGVVQPGGSLRLSCTASGFTFSTADMGWFRQAPGKGREFVARISGIDGTTYYDEPVKGRFTISRDNSKNTVYLQMNSLRPEDTALYYCRSPRYADQWSAYDYWGQGTLVKVSS | 0.67 ratio | 100 pM | 176 pM | 49 pM | 2.3 ratio | 127 pM | 0.0999 nM | 1.8 ratio | 0.4 ratio | 0.127 nM |
| F027200925 (bispecific antibody) DVQLVESGGGVVQPGGSLRLSCTASGFTFSTADMGWFRQAPGKGREFVARISGIDGTTYYDEPVKGRFTISRDNSKNTVYLQMNSLRPEDTALYYCRSPRYADQWSAYDYWGQGTLVTVSSGGGGSGGGSEVQLVESGGGVVQPGGSLRLSCAASGIIFSINAMGWYRQAPGKQRELVADIFPFGSTEYADSVKGRFTISRDNAKNTVYLQMNSLRPEDTALYYCHSYDPRGDDYWGQGTLVTVSSGGGGSGGGSEVQLVESGGGVVQPGGSLRLSCAASGFTFRSFGMSWVRQAPGKGPEWVSSISGSGSDTLYADSVKGRFTISRDNSKNTLYLQMNSLRPEDTALYYCTIGGSLSRSSQGTLVTVSSGGGGSGGGSEVQLVESGGGVVQPGGSLRLSCAASGRTFSSYVMGWFRQAPGKEREFVSTINWAGSRGYYADSVKGRFTISRDNAKNTVYLQMNSLRPEDTALYYCAASAGGFLVPRVGQGYDYWGQGTLVKVSSA | 1.43 ratio | 64 pM | 265 pM | 1710 pM | 14.8 ratio | 610 pM | 0.0643 nM | 4.1 ratio | 2.8 ratio | 0.61 nM |
| F027200929 (bispecific antibody) EVQLVESGGGVVQPGGSLRLSCAASGRTFSSYVMGWFRQAPGKEREFVSTINWAGSRGYYADSVKGRFTISRDNAKNTVYLQMNSLRPEDTALYYCAASAGGFLVPRVGQGYDYWGQGTLVTVSSGGGGSGGGSEVQLVESGGGVVQPGGSLRLSCAASGFTFRSFGMSWVRQAPGKGPEWVSSISGSGSDTLYADSVKGRFTISRDNSKNTLYLQMNSLRPEDTALYYCTIGGSLSRSSQGTLVTVSSGGGGSGGGSEVQLVESGGGVVQPGGSLRLSCAASGFSLDYYGVGWFRQAPGKEREGVSCISSSEGDTYYADSVKGRFTISRDNAKNTVYLQMNSLRPEDTALYYCATDLSDYGVCSRWPSPYDYWGQGTLVKVSSGGGGSGGGSEVQLVESGGGVVQPGGSLRLSCTASGFTFSTADMGWFRQAPGKGREFVARISGIDGTTYYDEPVKGRFTISRDNSKNTVYLQMNSLRPEDTALYYCRSPRYADQWSAYDYWGQGTLVKVSS |  |  |  |  |  |  | 0.0858 nM | 3.2 ratio | 1 ratio | 0.0738 nM |
| F027200166 (bispecific antibody) EVQLVESGGGVVQPGGSLRLSCAASGIIFSINAMGWYRQAPGKQRELVADIFPFGSTEYADSVKGRFTISRDNAKNTVYLQMNSLRPEDTALYYCHSYDPRGDDYWGQGTLVTVSSGGGGSGGGSEVQLVESGGGVVQPGGSLRLSCAASGFTLAYYAIGWFRQAPGKEREGVSCISGSVGTTYYADSVKGRFTISRDNAKNTVYLQMNSLRPEDTALYYCVRSSWFDCGVQGRDLGNEYDYRGQGTLVTVSSGGGGSGGGSEVQLVESGGGVVQPGGSLRLSCAASGFTFRSFGMSWVRQAPGKGPEWVSSISGSGSDTLYADSVKGRFTISRDNSKNTLYLQMNSLRPEDTALYYCTIGGSLSRSSQGTLVTVSSGGGGSGGGSEVQLVESGGGVVQPGGSLRLSCTASGFTFSTADMGWFRQAPGKGREFVARISGIDGTTYYDEPVKGRFTISRDNSKNTVYLQMNSLRPEDTALYYCRSPRYADQWSAYDYWGQGTLVKVSS |  |  |  |  |  |  | 0.16 nM | 3.3 ratio | 10 ratio | 2.25 nM |
